One test concerns the target mouse CD8 (LYT2) (mouse) (UniProt P01731).
For test [1], the target named is Nef (SIV) peptide 1-15 (SIV strain Mac251).
The target in test [2] is Nef (SIV) peptide 16-30 (SIV strain Mac251).
Test [3] concerns the target Nef (SIV) peptide 221-235 (SIV strain Mac251).
Test [4] addresses Nef (SIV) peptide 40-60 (SIV strain Mac251).
The target of test [5] is Nef (SIV) peptide 84-96 (SIV strain Mac251).
The next test addresses mouse CD4 (L3T4) (mouse) (UniProt P06332).

Where only a bound is given, the exact number is not on record here.

The text below walks through data of patent publication US5968815.

In turn, “anti-CD8 monoclonal antibody, hybridoma H35 17-2 (rat anti-mouse LYT2)” came in with an inhibition of the proliferative response of LN cells to beta-galactosidase with mouse CD8 (LYT2) (mouse) of 30%.
Take “lymph node cells of unimmunized rats (control of FIG. 14) (cells without a defined receptor)”: the proliferation of lymph node cells (cpm) in test [1], in test [2], in test [3], in test [4] and in test [5] was below 250 cpm in each case.
For the substance “lymph node cells of Balb/c mice immunised with non-recombinant BCG strain 1173P2 (cells without a defined receptor)”, the proliferation of lymph node cells (cpm) in test [1] was below 2500 cpm; in test [2], below 2500 cpm; in test [3], below 2500 cpm; in test [4], below 2500 cpm; in test [5], 5000 cpm.
As for “anti-CD4 monoclonal antibody, hybridoma GK 1-5 (rat anti-mouse L3T4)”, the inhibition of the proliferative response of LN cells to beta-galactosidase in the test with mouse CD4 (L3T4) (mouse) worked out at 70%.
